Reference: US20050256058

T1: Cbz-Ala-Ala-AAsn-CH═CH-CO-indoline
T1 chain: AAN

T2: Cbz-Ala-Ala-AAsn-CH═CH-COOEt
T2 chain: AAN

T3: Cbz-Ala-Ala-AAsn-CH═CH-CON(CH3)Bzl
T3 chain: AAN

T4: Cbz-Ala-Ala-AAsn-CH═CH-CONHCH2CH2Ph
T4 chain: AAN

T5: PhPr-Leu-AOrn-CH═CH-COOEt
T5 chain: LX

T6: PhPr-Leu-ALys-CH═CH-COOEt
T6 chain: LK

T7: Cbz-Ala-Ala-AAsn-CH═CH-CON(Bzl)2
T7 chain: AAN

T8: Cbz-Ala-Ala-AAsn-CH═CH-CON(Bzl)-2-CH2-Napth
T8 chain: AAN

T9: Cbz-Ala-Ala-AAsn-CH═CH-CON(Bzl)-1-CH2-Napth
T9 chain: AAN


What was measured:
[1] = target: T1, Cbz-Ala-Ala-AAsn-CH═CH-CO-indoline
[2] = target: T2, Cbz-Ala-Ala-AAsn-CH═CH-COOEt
[3] = target: T3, Cbz-Ala-Ala-AAsn-CH═CH-CON(CH3)Bzl
[4] = target: T4, Cbz-Ala-Ala-AAsn-CH═CH-CONHCH2CH2Ph
[5] = target: T5, PhPr-Leu-AOrn-CH═CH-COOEt
[6] = target: T6, PhPr-Leu-ALys-CH═CH-COOEt
[7] = target: T7, Cbz-Ala-Ala-AAsn-CH═CH-CON(Bzl)2
[8] = target: T8, Cbz-Ala-Ala-AAsn-CH═CH-CON(Bzl)-2-CH2-Na …
[9] = target: T9, Cbz-Ala-Ala-AAsn-CH═CH-CON(Bzl)-1-CH2-Na …

| Protein | kobs/[I] [1] | kobs/[I] [2] | kobs/[I] [3] | kobs/[I] [4] | kobs/[I] [5] | kobs/[I] [6] | kobs/[I] [7] | kobs/[I] [8] [M⁻¹ s⁻¹] | kobs/[I] [9] [M⁻¹ s⁻¹] |
| --- | --- | --- | --- | --- | --- | --- | --- | --- | --- |
| Caspase-6 (protein) AFYKREMFDPAEKYKMDHRRRGIALIFNHERFFWHLTLPERRGTCADRDNLTRRFSDLGFEVKCFNDLKAEELLLKIHEVSTVSHADADCFVCVFLSHGEGNHIYAYDAKIEIQTLTGLFKGDKCHSLVGKPKIFIIQACRGNQHDVPVIPLDVVDNQTEKLDTNITEVDAASVYTLPAGADFLMCYSVAEGYYSHRETVNGSWYIQDLCEMLGKYGSSLEFTELLTLVNRKVSQRRVDFCKDPSAIGKKQVPCFASMLTKKLHFFPKSN | NI | NI | NI | NI | NI | NI | NI |  |  |
| calpain I from porcine erythrocytes (protein) MAEEVITPVYCTGVSAQVQKLRAKELGLGRHENAIKYLGQDYEQLRAHCLQSGSLFRDEAFPPVPQSLGFKELGPNSSKTYGVKWKRPTELFSNPQFIVDGATRTDICQGALGDCWLLAAIASLTLNDTLLHRVVPHGQSFQNGYAGIFHFQLWQFGEWVDVVVDDLLPTKDGKLVFVHSAQGNEFWSALLEKAYAKVNGSYEALSGGSTSEGFEDFTGGVTEWYELRKAPSDLYSIILKALERGSLLGCSIDISSVLDMEAVTFKKLVKGHAYSVTGAKQVNYQGQMVNLIRMRNPWGEVEWTGAWSDGSSEWNGVDPYQRDQLRVRMEDGEFWMSFRDFLREFTRLEICNLTPDALKSQRVRNWNTTLYEGTWRRGSTAGGCRNYPATFWVNPQFKIRLEETDDPEDDYGGRESGCSFVLALMQKHRRRERRFGRDMETIGFAVYEVPPELVGQPVHLKRDFFLANASRARSEQFINLREVSTRFRLPPGEYVVVPSTFEPNKEGDFVLRFFSEKKAGTQELDDQVQAILPDEQVLSEEEIDENFKALFRQLAGEDMEISVRELRTILNRIISKHKDLRTKGFSLESCRSMVNLMDRDGNGKLGLVEFNILWNRIRNYLSIFRKFDLDKSGSMSAYEMRMAIESAGFKLNKKLFELIITRYSEPDLAVDFDNFVCCLVRLETMFRFFKTLDTDLDGVVTFDLFKWLQLTMFA | NI | NI | NI | NI | NI | NI | NI |  |  |
| Papain (protein) IPEYVDWRQKGAVTPVKNQGSCGSCWAFSAVVTIEGIIKIRTGNLNEYSEQELLDCDRRSYGCNGGYPWSALQLVAQYGIHYRNTYPYEGVQRYCRSREKGPYAAKTDGVRQVQPYNEGALLYSIANQPVSVVLEAAGKDFQLYRGGIFVGPCGNKVDHAVAAVGYGPNYILIKNSWGTGWGENGYIRIKRGTGNSYGVCGLYTSSFYPVKN | NI | NI | NI | 12 M⁻¹ s⁻¹ | NI | NI | 1 M⁻¹ s⁻¹ |  |  |
| schistosome legumain SmAE (Schistosoma mansoni asparaginyl endopeptidase) (protein) VSDNNKWAVLVAGSNGYPNYRHQADVCHAYHVLRSKGIKPEHIITMMYDDIAYNLMNPFPGKLFNDYNHKDWYEGVVIDYRGKNVNSKTFLKVLKGDKSAGGKVLKSGKNDDVFIYFTDHGAPGLIAFPDDELYAKEFMSTLKYLHSHKRYSKLVIYIEANESGSMFQQILPSNLSIYATTAANSTECSYSTFCGDPTITTCLADLYSYNWIVDSQTHHLTQRTLDQQYKEVKRETDLSHVQRYGDTRMGKLYVSEFQGS |  | 17400 M⁻¹ s⁻¹ |  |  |  |  | 5800 M⁻¹ s⁻¹ | 6100 | 6180 |
| Caspase-3 (protein) SGISLDNSYKMDYPEMGLCIIINNKNFHKSTGMTSRSGTDVDAANLRETFRNLKYEVRNKNDLTREEIVELMRDVSKEDHSKRSSFVCVLLSHGEEGIIFGTNGPVDLKKITNFFRGDRCRSLTGKPKLFIIQACRGTELDCGIETDSGVDDDMACHKIPVEADFLYAYSTAPGYYSWRNSKDGSWFIQSLCAMLKQYADKLEFMHILTRVNRKVATEFESFSFDATFHAKKQIPCIVSMLTKELYFYH | NI | NI | NI | NI | NI | NI | NI |  |  |
| Caspase-8 (protein) SESQTLDKVYQMKSKPRGYCLIINNHNFAKAREKVPKLHSIRDRNGTHLDAGALTTTFEELHFEIKPHDDCTVEQIYEILKIYQLMDHSNMDCFICCILSHGDKGIIYGTDGQEAPIYELTSQFTGLKCPSLAGKPKVFFIQACQGDNYQKGIPVETDSEEQPYLEMDLSSPQTRYIPDEADFLLGMATVNNCVSYRNPAEGTWYIQSLCQSLRERCPRGDDILTILTEVNYEVSNKDDKKNMGKQMPQPTFTLRKKLVFPSD | NI | NI | NI | NI | NI | NI | NI |  |  |
